The data set relates to Escherichia coli TOP10. As to the kind of experiment: shrunken log2 fold change of peptide-encoding DNA abundance (4.5 h post-induction vs induction); higher = less antimicrobial activity (less host growth inhibition). Conditions: time post-induction: 4.5 h; library: site-saturation at positions 5, 18, 19, 20.
On to RRIRWRPPRLPRPRPRPHGMPRP, for which the “shrunken log2 fold change” value came out at 0.0365.
The same measure for RRIRKRPPRLPRPRPRPTVPPRP: 0.283.
The same measure for RRIRSRPPRLPRPRPRPDKQPRP: -0.0566; for RRIRSRPPRLPRPRPRPLCRPRP: -0.0794.
Then RRIRCRPPRLPRPRPRPNYYPRP, with -0.868; and RRIRYRPPRLPRPRPRPKWFPRP, with -0.87.
Regarding RRIRMRPPRLPRPRPRPQARPRP, the “shrunken log2 fold change” value was determined as 0.575.
The same measure for RRIRRRPPRLPRPRPRPRWYPRP: 0.092.
The same measure for RRIRMRPPRLPRPRPRPEEPPRP: 0.0975; for RRIRKRPPRLPRPRPRPVWCPRP: -0.0673.
The same measure for RRIRGRPPRLPRPRPRPGHWPRP: 0.387; for RRIRERPPRLPRPRPRPCGVPRP: 0.0484.
In the case of RRIRERPPRLPRPRPRPGTSPRP, the “shrunken log2 fold change” value was 1.87.
In the case of RRIRHRPPRLPRPRPRPNQVPRP, the “shrunken log2 fold change” value is 0.0339.
Then RRIRIRPPRLPRPRPRPYMWPRP, with -0.198; and RRIRFRPPRLPRPRPRPKFNPRP, with -0.588.
The same measure for RRIRMRPPRLPRPRPRPIGDPRP: 0.0215; for RRIRNRPPRLPRPRPRPSLMPRP: 0.0538; for RRIRCRPPRLPRPRPRPNFEPRP: -0.0286.
Take RRIRVRPPRLPRPRPRPKQAPRP: the “shrunken log2 fold change” value turned out to be 0.243.
RRIRMRPPRLPRPRPRPCWQPRP: the “shrunken log2 fold change” value amounted to 0.0757.
Then RRIRDRPPRLPRPRPRPLPQPRP, with 0.282; and RRIRARPPRLPRPRPRPYDNPRP, with -0.0875; and RRIRPRPPRLPRPRPRPHQIPRP, with 1.04.
The same measure for RRIRPRPPRLPRPRPRPCVKPRP: -0.139; for RRIRLRPPRLPRPRPRPQMRPRP: 0.64.
The same measure for RRIRMRPPRLPRPRPRPYEKPRP: -0.111.
Consider RRIRGRPPRLPRPRPRPGMAPRP, for which the “shrunken log2 fold change” value came to 0.877.
The same measure for RRIRERPPRLPRPRPRPISAPRP: -0.214; for RRIRRRPPRLPRPRPRPACAPRP: 0.727.
Then RRIRDRPPRLPRPRPRPILHPRP, with -0.0215.
The same measure for RRIRVRPPRLPRPRPRPEHWPRP: 0.28; for RRIRRRPPRLPRPRPRPNQMPRP: 0.388; for RRIRARPPRLPRPRPRPDVTPRP: 0.533.
Turning to RRIRTRPPRLPRPRPRPFNMPRP, the “shrunken log2 fold change” value was -0.692.
The same measure for RRIRVRPPRLPRPRPRPDVYPRP: -0.0411.
Then RRIRPRPPRLPRPRPRPQDEPRP, with 0.0996; and RRIRQRPPRLPRPRPRPHNLPRP, with -0.183.
The same measure for RRIRNRPPRLPRPRPRPGPVPRP: 0.127; for RRIRVRPPRLPRPRPRPDCFPRP: 0.0303.
Consider RRIRLRPPRLPRPRPRPDVKPRP, for which the “shrunken log2 fold change” value was -0.488.
Then RRIRARPPRLPRPRPRPTNCPRP, with 0.269.
Then RRIRPRPPRLPRPRPRPNGAPRP, with 0.327; and RRIRFRPPRLPRPRPRPWETPRP, with 0.0299.
The same measure for RRIRWRPPRLPRPRPRPEDSPRP: 0.769; for RRIRIRPPRLPRPRPRPEDSPRP: -0.0125.
For the sequence RRIRPRPPRLPRPRPRPSSEPRP, the “shrunken log2 fold change” value came out at 0.174.
Then RRIRVRPPRLPRPRPRPFTLPRP, with -0.104.
Then RRIRHRPPRLPRPRPRPRKAPRP, with -0.0445; and RRIRNRPPRLPRPRPRPRLEPRP, with 0.317; and RRIRFRPPRLPRPRPRPMPTPRP, with 0.432.
The same measure for RRIRRRPPRLPRPRPRPYSDPRP: 0.186; for RRIRFRPPRLPRPRPRPVYPPRP: -0.477.
Turning to RRIRNRPPRLPRPRPRPEAKPRP, the “shrunken log2 fold change” value was determined as 0.302.
The same measure for RRIRGRPPRLPRPRPRPGRKPRP: 0.747; for RRIRYRPPRLPRPRPRPHQWPRP: -0.649; for RRIRMRPPRLPRPRPRPIHSPRP: -0.01.
The same measure for RRIRYRPPRLPRPRPRPTKVPRP: -0.235; for RRIRNRPPRLPRPRPRPGHVPRP: -0.0552; for RRIRIRPPRLPRPRPRPLRYPRP: -0.409.
The same measure for RRIRERPPRLPRPRPRPQKPPRP: 0.0657; for RRIRFRPPRLPRPRPRPDWWPRP: -0.0896; for RRIRWRPPRLPRPRPRPEGGPRP: 0.567.
RRIRERPPRLPRPRPRPLCNPRP: the “shrunken log2 fold change” value is -0.342.
The same measure for RRIRTRPPRLPRPRPRPRNLPRP: -0.218; for RRIRCRPPRLPRPRPRPCGNPRP: -0.278; for RRIRRRPPRLPRPRPRPNWAPRP: 0.164.
The same measure for RRIRWRPPRLPRPRPRPCWFPRP: 0.0945; for RRIRFRPPRLPRPRPRPGENPRP: 0.995; for RRIRTRPPRLPRPRPRPLHTPRP: -0.161.
RRIRYRPPRLPRPRPRPHPLPRP: the “shrunken log2 fold change” value is -0.719.
RRIRWRPPRLPRPRPRPGLTPRP: the “shrunken log2 fold change” value turned out to be 0.0693.
The same measure for RRIRPRPPRLPRPRPRPSLRPRP: 0.0129; for RRIRGRPPRLPRPRPRPRHDPRP: 0.417.
Then RRIRERPPRLPRPRPRPLCYPRP, with -0.824.
For the sequence RRIRSRPPRLPRPRPRPKQIPRP, the “shrunken log2 fold change” value is 0.0712.
Then RRIRFRPPRLPRPRPRPLQQPRP, with -0.0115; and RRIRSRPPRLPRPRPRPYRSPRP, with -0.47; and RRIRFRPPRLPRPRPRPLWSPRP, with 0.655.
For the sequence RRIRWRPPRLPRPRPRPFGCPRP, the “shrunken log2 fold change” value was -0.274.
Then RRIRLRPPRLPRPRPRPFPSPRP, with -0.173; and RRIRGRPPRLPRPRPRPIHSPRP, with -0.441; and RRIRYRPPRLPRPRPRPERRPRP, with 0.197.
For the sequence RRIRARPPRLPRPRPRPMKAPRP, the “shrunken log2 fold change” value amounted to 0.0595.
Then RRIRQRPPRLPRPRPRPPPWPRP, with 0.981; and RRIRYRPPRLPRPRPRPVIGPRP, with -0.661.
Then RRIRIRPPRLPRPRPRPTPSPRP, with 0.0658; and RRIRPRPPRLPRPRPRPLDKPRP, with -0.0324; and RRIRYRPPRLPRPRPRPHADPRP, with -0.0359.
The same measure for RRIRYRPPRLPRPRPRPLQRPRP: -0.208.
As to RRIRARPPRLPRPRPRPKWIPRP, the “shrunken log2 fold change” value turned out to be 0.0218.

For the origin of these results see the supplement of paper PMC9112550, “Optimization of the antimicrobial peptide Bac7 by deep mutational scanning” (BMC Biology, 2022).
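Note: peptides expressed intracellularly from a pBAD plasmid library in pooled LB shake-flask culture, induced with 0.3% L-arabinose, DNA abundance read by NGS, three biological replicates, DESeq2 with apeglm shrinkage.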
